The source of these data is paper PMC3746776 (Journal of molecular biology, 2013).

The data set “crystal structure” concerns the molecule itself. Put plainly: crystal structure.
Data set [1] deals with purified phage T4 heads (bacteriophage T4) (UniProt P13334). Nature of the data set: co-sedimentation.
Chain of purified phage T4 heads (bacteriophage T4) (P13334 whole entry, looked up): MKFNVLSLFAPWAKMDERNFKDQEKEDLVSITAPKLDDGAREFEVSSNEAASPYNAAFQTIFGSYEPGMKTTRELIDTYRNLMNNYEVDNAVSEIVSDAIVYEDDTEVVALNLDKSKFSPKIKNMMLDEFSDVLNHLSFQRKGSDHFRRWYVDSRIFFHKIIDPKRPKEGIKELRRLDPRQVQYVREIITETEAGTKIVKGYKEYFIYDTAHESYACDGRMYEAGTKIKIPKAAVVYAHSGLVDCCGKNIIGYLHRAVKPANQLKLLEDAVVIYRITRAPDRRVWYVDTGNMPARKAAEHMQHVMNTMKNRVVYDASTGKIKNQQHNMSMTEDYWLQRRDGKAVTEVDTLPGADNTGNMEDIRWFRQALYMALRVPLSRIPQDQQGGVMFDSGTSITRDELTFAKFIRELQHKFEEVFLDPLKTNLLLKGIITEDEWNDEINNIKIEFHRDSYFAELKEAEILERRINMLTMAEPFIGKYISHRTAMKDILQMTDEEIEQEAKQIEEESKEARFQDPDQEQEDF

B1: gp15 C-terminal truncation mutant (residues 1-261) (domain or fragment, bacteriophage T4, UniProt P11112 1-261, looked up)
chain: MFGYFYNSSFRRYATLMGDLFSNIQIKRQLESGDKFIRVPITYASKEHFMMKLNKWTSINSQEDVAKVETILPRINLHLVDFSYNAPFKTNILNQNLLQKGATSVVSQYNPSPIKMIYELSIFTRYEDDMFQIVEQILPYFQPHFNTTMYEQFGNDIPFKRDIKIVLMSAAIDEAIDGDNLSRRRIEWSLTFEVNGWMYPPVDDAEGLIRTTYTDFHANTRDLPDGEGVFESVDSEVVPRDIDPEDWDGTVKQTFTSNVNR
Usually stoichiometry N stands for a count of units in the complex or per binding partner. In the case of B1, in “crystal structure”, the “stoichiometry N” value worked out at 6.

B2: bacteriophage T4 gp14, purified (natural protein)
chain: MATYDKNLFAKLENRTGYSQTNETEILNPYVNFNHYKNSQILADVLVAESIQMRGVECYYVPREYVSPDLIFGEDLKNKFTKAWKFAAYLNSFEGYEGAKSFFSNFGMQVQDEVTLSINPNLFKHQVNGKEPKEGDLIYFPMDNSLFEINWVEPYDPFYQLGQNAIRKITAGKFIYSGEEINPVLQKNEGINIPEFSELELNAVRNLNGIHDINIDQYAEVDQINSEAKEYVEPYVVVNNRGKSFESSPFDNDFMD
In the case of B2, the stoichiometry N (copies per head) in data set [1] was determined as 6.
